This passage reports protein stability index results from the supplement of paper PMC10567573.

B1: ZNF207 (parent)
chain: YQGGPPRPPMGMRPPVMSQGGRY
B2: SCNN1D (parent)
chain: FYRLYQDLETHRLPCTSRCPRPCR
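Note: lentivirally expressed fusions sorted by FACS into six bins by GFP to DsRed ratio, PSI derived from sequencing read proportions per bin multiplied by bin number.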

The variants in one series derive from B1. Briefly: protein stability index of a GFP-peptide fusion (GPS, HEK-293T) (PSI 1-6); higher = more stable. The conditions noted are these: c terminus: native.
For the variant YQGGPPRPPMGMRPPVMSQGGRA [Y23A], the protein stability index stood at 1.98.
The same measure, in the same setting: the result for YQGGPPRPPMGMRPPVMSQGGRW [Y23W] reads 3.51; that for YQGGPPRPPMGMRPPVMSQGGRD [Y23D], 3.11; that for YQGGPPRPPMGMRPPVMSQGGRC [Y23C], 1.97.
Same read-out and setting: the same measure for YQGGPPRPPMGMRPPVMSQGGRE [Y23E]: 2.37.
As to YQGGPPRPPMGMRPPVMSQGGRP [Y23P], the protein stability index turned out to be 2.82.
With YQGGPHRPPMGMRPPVMSQGGRY [P6H], the protein stability index came to 2.23.
Same read-out and setting: the result for YQGGPSRPPMGMRPPVMSQGGRY [P6S] reads 2.45; that for YQGGPTRPPMGMRPPVMSQGGRY [P6T], 2.06; that for YQGGPQRPPMGMRPPVMSQGGRY [P6Q], 2.2.
Take YQGGPERPPMGMRPPVMSQGGRY [P6E]: the protein stability index is 2.95.
Consider YQGGPKRPPMGMRPPVMSQGGRY [P6K], for which the protein stability index turned out to be 2.91.
For the variant YQGGPLRPPMGMRPPVMSQGGRY [P6L], the protein stability index was determined as 2.58.
YQGGPGRPPMGMRPPVMSQGGRY [P6G]: the protein stability index came out at 2.07.
Still for that read-out and setting: the result for YQGGPDRPPMGMRPPVMSQGGRY [P6D] reads 2.73.
Turning to YQGGPIRPPMGMRPPVMSQGGRY [P6I], the protein stability index was determined as 2.49.
For the variant YQGGPYRPPMGMRPPVMSQGGRY [P6Y], the protein stability index was 1.78.
In the case of YQGGPNRPPMGMRPPVMSQGGRY [P6N], the protein stability index was found to be 2.59.
YQGGPMRPPMGMRPPVMSQGGRY [P6M]: the protein stability index was 2.19.
On the same count and under the same terms, the same measure for YQGGPPRPPMYMRPPVMSQGGRY [G11Y]: 2.14.
As to YQGGPPRPPMSMRPPVMSQGGRY [G11S], the protein stability index was found to be 1.52.
YQGGPPRPPMHMRPPVMSQGGRY [G11H]: the protein stability index was determined as 1.43.
Same read-out and setting: the same measure for YQGGPPRPPMIMRPPVMSQGGRY [G11I]: 2.95; for YQGGPPRPPMLMRPPVMSQGGRY [G11L]: 1.82; for YQGGPPRPPMPMRPPVMSQGGRY [G11P]: 1.6.
On to YQGGPPRPPMNMRPPVMSQGGRY [G11N], for which the protein stability index stood at 1.97.
On the same count and under the same terms, the same measure for YQGGPPRPPMCMRPPVMSQGGRY [G11C]: 1.81.
Still for that read-out and setting: the result for YQGGPPRPPMGMRPPWMSQGGRY [V16W] reads 1.75.
The same measure, in the same setting: the same measure for YQGGPPRPPMGMRPPFMSQGGRY [V16F]: 2.18; for YQGGPPRPPMGMRPPKMSQGGRY [V16K]: 2.93.
On to YQGGPPRPPMGMRPPCMSQGGRY [V16C], for which the protein stability index amounted to 2.44.
As for YQGGPPRPPMGMRPPHMSQGGRY [V16H], the protein stability index was 2.71.
Take YQGGPPRPPMGMRPPNMSQGGRY [V16N]: the protein stability index stood at 2.65.
In the case of YQGGPPRPPMGMRPPIMSQGGRY [V16I], the protein stability index worked out at 2.03.
Regarding YQGGPPRPPHGMRPPVMSQGGRY [M10H], the protein stability index stood at 2.34.
The same measure, in the same setting: the same measure for YQGGPPRPPSGMRPPVMSQGGRY [M10S]: 2.1; for YQGGPPRPPNGMRPPVMSQGGRY [M10N]: 1.82; for YQGGPPRPPVGMRPPVMSQGGRY [M10V]: 2.57.
Still for that read-out and setting: the result for YQGGPPRPPQGMRPPVMSQGGRY [M10Q] reads 2.14.
In the case of YQGGPPRPPIGMRPPVMSQGGRY [M10I], the protein stability index was found to be 3.45.
Regarding YQGGPPRPPLGMRPPVMSQGGRY [M10L], the protein stability index worked out at 1.4.
Same read-out and setting: the result for YQGGPPSPPMGMRPPVMSQGGRY [R7S] reads 2.98.
YQGGPPGPPMGMRPPVMSQGGRY [R7G]: the protein stability index is 2.8.
Take YQGGPPCPPMGMRPPVMSQGGRY [R7C]: the protein stability index was determined as 1.23.
On the same count and under the same terms, the result for YQGGPPVPPMGMRPPVMSQGGRY [R7V] reads 1.66.
Regarding YQGGPPEPPMGMRPPVMSQGGRY [R7E], the protein stability index worked out at 3.09.
Turning to YQGGPPMPPMGMRPPVMSQGGRY [R7M], the protein stability index came out at 1.51.
Regarding YQGGPPKPPMGMRPPVMSQGGRY [R7K], the protein stability index was 2.71.
Consider YQGGPPLPPMGMRPPVMSQGGRY [R7L], for which the protein stability index is 1.7.
Take YQGGPPIPPMGMRPPVMSQGGRY [R7I]: the protein stability index came to 1.92.
Turning to YQGGPPRPPMGMRPPVMNQGGRY [S18N], the protein stability index was 2.13.
For YQGGPPRPPMGMRPPVMHQGGRY [S18H], the protein stability index stood at 1.44.
As to YQGGPPRPPMGMRPPVMRQGGRY [S18R], the protein stability index is 2.2.
With YQGGPPRPPMGMRPPVMYQGGRY [S18Y], the protein stability index is 1.58.
YQGGPPRPPMGMRPPVMKQGGRY [S18K]: the protein stability index is 1.81.
Consider YQGGPPRPPMGMRPPVMLQGGRY [S18L], for which the protein stability index came to 2.28.
The same measure, in the same setting: the result for YQGGPPRPPMGMRPPVMWQGGRY [S18W] reads 2.56; that for YQGGPPRPPMGMRPPVMDQGGRY [S18D], 2.04.
Consider YQGGPPRPPMGMRPPVMPQGGRY [S18P], for which the protein stability index stood at 2.08.
YQGGPPRPPMGMRPPVMEQGGRY [S18E]: the protein stability index was found to be 2.72.

In a further series the parent is B2. The series is described as above. The settings on record: c terminus: a fixed tail appended.
As for QYRLYQDLETHRLPCTSRCPRPCR [F1Q], the protein stability index was found to be 2.71.
As for KYRLYQDLETHRLPCTSRCPRPCR [F1K], the protein stability index is 3.37.
Consider MYRLYQDLETHRLPCTSRCPRPCR [F1M], for which the protein stability index turned out to be 2.02.
Still for that read-out and setting: the same measure for SYRLYQDLETHRLPCTSRCPRPCR [F1S]: 3.2.
On the same count and under the same terms, the result for EYRLYQDLETHRLPCTSRCPRPCR [F1E] reads 3.71; that for YYRLYQDLETHRLPCTSRCPRPCR [F1Y], 2.4; that for LYRLYQDLETHRLPCTSRCPRPCR [F1L], 1.54.
Turning to NYRLYQDLETHRLPCTSRCPRPCR [F1N], the protein stability index worked out at 3.47.
For the variant TYRLYQDLETHRLPCTSRCPRPCR [F1T], the protein stability index worked out at 3.46.
Regarding CYRLYQDLETHRLPCTSRCPRPCR [F1C], the protein stability index worked out at 2.22.
For the variant RYRLYQDLETHRLPCTSRCPRPCR [F1R], the protein stability index is 2.92.
As for PYRLYQDLETHRLPCTSRCPRPCR [F1P], the protein stability index came to 3.59.
With WYRLYQDLETHRLPCTSRCPRPCR [F1W], the protein stability index amounted to 2.91.
With GYRLYQDLETHRLPCTSRCPRPCR [F1G], the protein stability index stood at 4.3.
Same read-out and setting: the result for HYRLYQDLETHRLPCTSRCPRPCR [F1H] reads 3.06; that for VYRLYQDLETHRLPCTSRCPRPCR [F1V], 2.13; that for IYRLYQDLETHRLPCTSRCPRPCR [F1I], 2.12.
With DYRLYQDLETHRLPCTSRCPRPCR [F1D], the protein stability index turned out to be 3.8.
In the case of AYRLYQDLETHRLPCTSRCPRPCR [F1A], the protein stability index is 2.87.
Still for that read-out and setting: the result for FCRLYQDLETHRLPCTSRCPRPCR [Y2C] reads 1.55.
Regarding FHRLYQDLETHRLPCTSRCPRPCR [Y2H], the protein stability index was 1.59.
Take FTRLYQDLETHRLPCTSRCPRPCR [Y2T]: the protein stability index turned out to be 1.81.
Same read-out and setting: the same measure for FVRLYQDLETHRLPCTSRCPRPCR [Y2V]: 2.97; for FRRLYQDLETHRLPCTSRCPRPCR [Y2R]: 2.58.
Still for that read-out and setting: the result for FQRLYQDLETHRLPCTSRCPRPCR [Y2Q] reads 1.98; that for FPRLYQDLETHRLPCTSRCPRPCR [Y2P], 2.85.
With FERLYQDLETHRLPCTSRCPRPCR [Y2E], the protein stability index is 4.26.
With FMRLYQDLETHRLPCTSRCPRPCR [Y2M], the protein stability index turned out to be 2.4.
In the case of FARLYQDLETHRLPCTSRCPRPCR [Y2A], the protein stability index is 2.69.
Regarding FNRLYQDLETHRLPCTSRCPRPCR [Y2N], the protein stability index amounted to 3.63.
For the variant FIRLYQDLETHRLPCTSRCPRPCR [Y2I], the protein stability index was determined as 2.27.
Same read-out and setting: the same measure for FGRLYQDLETHRLPCTSRCPRPCR [Y2G]: 2.74; for FFRLYQDLETHRLPCTSRCPRPCR [Y2F]: 2.22; for FSRLYQDLETHRLPCTSRCPRPCR [Y2S]: 2.49.
On the same count and under the same terms, the same measure for FKRLYQDLETHRLPCTSRCPRPCR [Y2K]: 2.41.
As for FDRLYQDLETHRLPCTSRCPRPCR [Y2D], the protein stability index came out at 3.56.
In the case of FLRLYQDLETHRLPCTSRCPRPCR [Y2L], the protein stability index amounted to 1.55.
